Positions count from the first letter of the chain named.

This passage reports EC50, binding result and IC50 results from patent US20200369772A1 (ABBA THERAPEUTICS, published 2020).

Assay [1] deals with T1, human PD-L2 (full-length, on cells) (human, UniProt Q9BQ51 20-273).
T1 chain: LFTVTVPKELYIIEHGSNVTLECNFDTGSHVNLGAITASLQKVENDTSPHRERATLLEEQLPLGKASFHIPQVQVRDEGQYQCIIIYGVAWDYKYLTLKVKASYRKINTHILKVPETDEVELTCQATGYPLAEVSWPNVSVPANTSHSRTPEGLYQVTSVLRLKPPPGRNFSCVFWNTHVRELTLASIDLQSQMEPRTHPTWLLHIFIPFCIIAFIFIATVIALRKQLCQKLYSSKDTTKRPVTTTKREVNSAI
In words: FACS, NCI-H226 cells. The method, boiled down: (§1)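 NCI-H226 human lung squamous carcinoma cells (1.5×10⁵) were stained with APC-labelled goat anti-rat IgG (1:2000) for 20 min at 4° C. Binding to endogenous PD-L2 on these cells was then read by flow cytometry on a BD FACSCalibur. GraphPad Prism non-linear fitting of percentage of maximal binding versus concentration gave the binding EC50.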
For orientation: A flow cytometer gives signals particle by particle.

Assay [2] has as its target T2, human PD-L2 (full-length, on cells) (human, UniProt Q9BQ51 20-273).
T2 construct: whole, on cells; CHO-K1 cells stably expressing full-length human PD-L2; also endogenous on NCI-H226 and transfected in Jurkat cells; also called hPD-L2; CHO-K1/hPD-L2
T2 sequence (looked up): T1 chain
In words: hybridoma supernatant screen on cells expressing human PD-L2.

For assay [3], the target named is T3, human PD-L1 (full-length, on cells) (human, UniProt Q9NZQ7 19-290).
T3 construct: whole, on cells; HEK293 cells stably expressing full-length human PD-L1
The assay is described as follows: FACS on HEK293 cells stably expressing full-length human PD-L1. As for the experimental part:
(§2) The ability of anti-PD-L2 antibodies binding to mouse PD-L2, human PD-L1 or cyno PD-L2 was determined by FACS. HEK293 cells stably expressing full-length monkey PD-L2, mouse PD-L2 or human PD-L1 were established, subcloned and verified. For binding assay, 1.5×10⁵ cells in 100 μl of FACSwash buffer were incubated with individual anti-PD-L2 antibodies (0.5 μg/ml) for 30 min. After three times of washing, the cells were re-suspended in FACSwash buffer containing FITC-labelled goat-anti-rat IgG (Thermo Fisher, 1:1000) or APC-labelled goat-anti-ratIgG (Biolegend, Clone Poly4054) at a 1:2000 dilution for 20 min at 4° C., washed three times and subsequently subjected to FACS analysis. FACS data was analysed using FlowJo Software and depicted as histograms including secondary antibody only controls.

The target in assay [4] is T4, mouse PD-L2 (full-length, on cells) (mouse, UniProt Q9WUL5 20-247).
T4 construct: whole, on cells; HEK293 cells stably expressing full-length mouse PD-L2
T4 sequence (looked up): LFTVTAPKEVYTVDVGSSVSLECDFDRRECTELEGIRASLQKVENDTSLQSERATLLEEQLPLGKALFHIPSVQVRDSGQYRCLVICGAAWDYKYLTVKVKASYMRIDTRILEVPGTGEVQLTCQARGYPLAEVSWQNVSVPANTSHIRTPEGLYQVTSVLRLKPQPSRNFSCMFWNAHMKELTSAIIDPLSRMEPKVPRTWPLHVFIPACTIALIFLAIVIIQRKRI
In words: FACS on HEK293 cells stably expressing full-length mouse PD-L2. As for the experimental part: as §2

The target of assay [5] is T1, human PD-L2 (full-length, on cells). The assay is described as follows: FACS, CHO-K1 expressing human PD-L2. In short, it runs like this: (§3)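 Flow cytometry on a BD FACSCalibur was used to measure binding to CHO-K1 cells stably expressing full-length human PD-L2. Staining took 20 min at 4° C with APC-labelled anti-rat IgG or anti-human IgG Fc, chosen to match the antibody format. GraphPad Prism was used for non-linear curve fitting of percentage of maximal binding against concentration to obtain the binding EC50.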

For assay [6], the target named is T5, recombinant human PD-L2-Fc-biotin (human, UniProt Q9BQ51 20-220, biotin).
T5 chain: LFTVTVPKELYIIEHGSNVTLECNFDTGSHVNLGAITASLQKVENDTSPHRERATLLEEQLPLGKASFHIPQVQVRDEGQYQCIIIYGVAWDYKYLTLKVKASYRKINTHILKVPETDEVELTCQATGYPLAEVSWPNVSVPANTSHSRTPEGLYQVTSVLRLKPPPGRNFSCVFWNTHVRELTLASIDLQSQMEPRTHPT
In words: blocking of hPD-L2 binding to HEK293-hPD-1 cells. The method, boiled down:
(§4)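 The IC50 was calculated by non-linear curve fitting in GraphPad Prism from a flow cytometry assay of ligand binding to HEK293 cells stably expressing human PD-1. For this, antibody in serial dilution (0.03 ng/ml-0.5 μg/ml) was first held with recombinant human PD-L2-Fc-biotin (5 ng/ml, 100 pM) in 100 μl for 60 min at 4° C, then added to 1.5×10⁵ cells for 30 min at 4° C. Binding was read with fluorochrome-conjugated streptavidin (20 min, 4° C), with control wells defining 0% and 100% binding.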

Assay [7] has as its target T1, human PD-L2 (full-length, on cells). In words: blocking of hPD-1 binding to CHO-K1/hPD-L2 cells. The method, boiled down: (§5)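 Serially diluted antibody (0.25 ng/ml-4 μg/ml) was applied for 30 min at 4° C to 1.5×10⁵ CHO-K1 cells stably expressing human PD-L2, after which 0.5 μg/ml recombinant human PD-1-mouse Fc was added for 30 min at 4° C and detected with fluorochrome-conjugated anti-mouse IgG2a (1:200, 20 min, 4° C). Bound PD-1 was read by flow cytometry against reference wells setting 0% and 100% binding. The IC50 was calculated through non-linear curve fitting in GraphPad Prism.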

The target is the same in assay [8]. The assay is described as follows: FACS binding to CHO-K1 cells expressing human PD-L2. The method, boiled down: as §3
The target is the same in assay [9]. The assay is described as follows: FACS blocking of PD-1 binding to CHO-K1/hPD-L2; high antigen concentration. The method, boiled down: as §5
Assay [10] has as its target T5, recombinant human PD-L2-Fc-biotin. The assay is described as follows: FACS blocking of hPD-L2 binding to HEK293T-hPD-1; low antigen concentration. In short, it runs like this:
as §4

For assay [11], the target named is T1, human PD-L2 (full-length, on cells). The assay is described as follows: FACS, NCI-H226 cells. The method, boiled down:
as §1

Assay [12] addresses T2, human PD-L2 (full-length, on cells). The assay is described as follows: FACS binding on cells expressing human PD-L2 (per the examples).
The target of assay [13] is T1, human PD-L2 (full-length, on cells). The assay is described as follows: FACS, CHO-K1 expressing human PD-L2. The method, boiled down:
as §3

Assay [14] has the same target. In words: FACS binding to CHO-K1 cells expressing human PD-L2. In short, it runs like this:
as §3

For assay [15] the target is unchanged. In words: FACS blocking of PD-1 binding to CHO-K1/hPD-L2; high antigen concentration. The method, boiled down:
as §5

The target of assay [16] is T5, recombinant human PD-L2-Fc-biotin. In words: blocking of PD-L2 - PD-1 interaction (cell binding); low antigen concentration. In short, it runs like this:
as §4

T3 sequence (Q9NZQ7 19-290): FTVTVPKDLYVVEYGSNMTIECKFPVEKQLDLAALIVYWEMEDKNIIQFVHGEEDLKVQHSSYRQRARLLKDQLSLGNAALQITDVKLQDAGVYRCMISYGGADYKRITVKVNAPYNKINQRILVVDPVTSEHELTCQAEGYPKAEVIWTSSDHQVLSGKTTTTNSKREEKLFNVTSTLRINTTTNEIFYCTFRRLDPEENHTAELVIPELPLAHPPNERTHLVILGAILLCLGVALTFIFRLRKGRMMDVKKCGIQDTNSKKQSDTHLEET

B1: 1A1-C2 (antibody, V domains shown)
VH: QVQLQESGPGLVKPSGTLSLTCAVSGGSIGSSYWWTWIRQSPGKGLEWIGEIFHSGPTNYTPSLKSRVTISVDKSKNQFSLQLRSVTAADTAVYYCARTTGTTGFYYGMDVWGQGTTVTVSS
VL: EVVLTQSPATLYVTPGERVTLSCRASQSVSSNLAWYQQKPGQAPRLLIYGASTRATGIPARFSGSGSGTEFTLTISSLQSEDFAVYYCQQFNNWPRTFGLGTKVEIT
Regarding B1, the EC50 in [1] was 0.254 nM; in assay [5] it was 0.6 nM; in [8] it was 0.62 nM. Also, the binding result in [2] was “binds”; in assay [3], “no binding (tested: 0.5 µg/ml)”; in [4], “no binding (tested: 0.5 µg/ml)”. For the same molecule, the IC50 came out at 0.03 nM in assay [6], 0.49 nM in assay [7], 0.706 nM in assay [9] and 0.0408 nM in assay [10].

B2: 10D1-G1 (antibody, V domains shown)
VH: QVQLQESGPGLVKPSGTLSLTCAVSGGSISSSYWWSWVRQPPGKGLEWIGEIFHIGSTNYNPSLRSRVTISVVKSKNQFSLNLNSVTAADTAVYFCARVSGGYGYFSGMDVWGQGTTVTVSS
VL: DIQMTQSPSSLSASVGDRVTITCRASQGIRNDLGWYQQKPGKAPKRLIYGASSLQSGVPSRFSGSGSGTEFTLTISSLQPEDFATYYCLQHNSYPRTFGQGTKVEIK
notes: Both formats under this entry
Regarding B2, the EC50 is 0.146 nM in assay [11], 0.408 nM in assay [13], 0.38 nM in [8] and 0.37 nM in assay [14]. The binding result was “no binding (tested: 0.5 µg/ml)” in assay [3], “no binding (tested: 0.5 µg/ml)” in assay [4] and “binds” in assay [12]. The IC50 in [6] was found to be 0.014 nM; in assay [7], 0.4 nM; in [15] it was 0.343 nM; in [16] it was 0.0252 nM.

B3: 11C11-H5 (antibody, V domains shown)
VH: QVQLVESGGGVVQPGRSLRLSCAASGFAFSAYGMHWVRQAPGKGLEWVAISWYDGSNNYHADSVKGRFTISRDSSKNTLYLQMNSLRAEDTAVYYCAKSIGVARHYYYGMDVWGQGTTVTVSS
VL: SYELTQPPSVSVSPGQTASITCSGEELGDKYACWYQQKPGQSPVLVIYQDSKRPSGIPERFSGSNSGNAATLTISGTQAMDEADYYCQAWDSITVVFGGGTKLTVLG
notes: Both formats under this entry
B3: the EC50 in [1] was 0.131 nM; in [5], 0.346 nM; in assay [8], 0.81 nM. Moreover, the binding result in assay [2] is recorded as “binds”; in assay [3], “no binding (tested: 0.5 µg/ml)”; in assay [4], “no binding (tested: 0.5 µg/ml)”. Further, the concentration for half-maximal inhibition (IC50) in [6] stood at 0.012 nM; in assay [7], 0.41 nM; in [9], 0.527 nM; in [10], 0.0149 nM.

B4: 19C3-B3 (antibody, V domains shown)
VH: B3 VH
VL: B3 VL with V44L, V96I
notes: Both formats under this entry; also called 19C3-C3
Take B4: the EC50 in assay [1] worked out at 0.102 nM; in assay [5] it was 0.311 nM; in [8], 0.44 nM. The binding result in assay [3] is given as “no binding (tested: 0.5 µg/ml)”; in [4], “no binding (tested: 0.5 µg/ml)”; in [12], “binds”. The IC50 in assay [6] was determined as 0.013 nM; in [7] it was 0.43 nM; in [9], 0.454 nM; in assay [10], 0.0151 nM.

B5: 8B5-B1 (antibody, V domains shown)
VH: EVQLLESGGGLVQPGGSLKLSCAASGFTFSSYAMFWVRQAPGEGLAWVSAITGSGDHTYYADSVKDHFTISRDNSKNTLYLQMNSLKAEDTAVYYCAKDASGNSYGFPYWYFDLWGRGTLVTVSS
VL: QSALTQPASVSGSPGQSITISCTGTSSDVAGYNFVSWYQHHPGKTPKLMIYDVTNRPSGVSTRFSGSKSGNTASLTISGLQAEDEADYYCSSFTSATTLVFGGGTKLTVLG
notes: Both formats under this entry
On to B5, for which the EC50 in assay [1] was determined as 1.52 nM; in assay [5], 2.18 nM; in [8], 1.09 nM. For the same molecule, the binding result in assay [2] is on record as “binds”; in assay [3], “no binding (tested: 0.5 µg/ml)”; in [4], “no binding (tested: 0.5 µg/ml)”. Also, the IC50 in assay [6] turned out to be 0.017 nM; in assay [7] it was 0.94 nM; in [9] it was 2.02 nM; in assay [10] it was 0.0563 nM.

As a reminder, the EC50 is the midpoint of the concentration-response curve. A lower EC50 goes with a more potent agent. Broadly, the IC50 is the midpoint of a concentration-inhibition curve.
